IntAct's records for PubMed 15791205

B1: Angiotensin-converting enzyme 2 (Rattus norvegicus (Rat)), Q5EGZ1 (parent)
chain: MSSSCWLLLSLVAVATAQSLIEEKAESFLNKFNQEAEDLSYQSSLASWNYNTNITEENAQKMNEAAAKWSAFYEEQSKIAQNFSLQEIQNATIKRQLKALQQSGSSALSPDKNKQLNTILNTMSTIYSTGKVCNSMNPQECFLLEPGLDEIMATSTDYNRRLWAWEGWRAEVGKQLRPLYEEYVVLKNEMARANNYEDYGDYWRGDYEAEGVEGYNYNRNQLIEDVENTFKEIKPLYEQLHAYVRTKLMEVYPSYISPTGCLPAHLLGDMWGRFWTNLYPLTTPFLQKPNIDVTDAMVNQSWDAERIFKEAEKFFVSVGLPQMTPGFWTNSMLTEPGDDRKVVCHPTAWDLGHGDFRIKMCTKVTMDNFLTAHHEMGHIQYDMAYAKQPFLLRNGANEGFHEAVGEIMSLSAATPKHLKSIGLLPSNFQEDNETEINFLLKQALTIVGTLPFTYMLEKWRWMVFQDKIPREQWTKKWWEMKREIVGVVEPLPHDETYCDPASLFHVSNDYSFIRYYTRTIYQFQFQEALCQAAKHDGPLHKCDISNSTEAGQKLLNMLSLGNSGPWTLALENVVGSRNMDVKPLLNYFQPLFVWLKEQNRNSTVGWSTDWSPYADQSIKVRISLKSALGKNAYEWTDNEMYLFRSSVAYAMREYFSREKNQTVPFGEADVWVSDLKPRVSFNFFVTSPKNVSDIIPRSEVEEAIRMSRGRINDIFGLNDNSLEFLGIYPTLKPPYEPPVTIWLIIFGVVMGTVVVGIVILIVTGIKGRKKKNETKREENPYDSMDIGKGESNAGFQNSDDAQTSF

Variants of: B1
Settings: with spike_sars S

Row | Variant | effect of a mutation on the interaction
1 | N82M;F83Y;S84P | causing an interaction
2 | N82M;F83Y;S84P;H353K | causing an interaction
3 | H353K | causing an interaction

Variants of: B1
Settings: with spike_sars S
Remark: another data set of the same source

Row | Variant | effect of a mutation on the interaction
4 | N82M;F83Y;S84P;H353K | causing an interaction
